B1: IT4var24 CIDRα2.2 domain (domain or fragment)
chain: PLCGVNGPKGNWTDIEDKECTLVEKKKYDSNNTTNIDILTADKSQKNILQKYNKFCKNGANDEKSATPTANGGGQIKNWQCYYDESKESGQNNNCILGKWEDFTGNEDVTSYNVFFYNSIIEMLNDSIEWKDKLNICINNKTGKCRKVCKNPCECYKRWIEKKKTELEKIKDHFRKQKDIGDAAQREMTLNITLNNNFLNDIKDAYPVKQQLQKIEERLKDKMQEDFIFERTKTSIDKFLQEEEQFAEKCIEKHKC
notes: CIDRα2.2 domain of the PfEMP1 IT4var24, Plasmodium falciparum; also called CIDRα2.2 IT4var24; IT4var24 (α2.2)
B2: IT4var45 CIDRα2.9 domain (domain or fragment)
chain: PWCGVNGTKGNWTPKNDDDCKPGNEYKNYENTQIPILTGDKTKSEIVERYRKFCKNNGKNGANGREGGVGGSENGAASNSDNATTGYCGTNNNDKDPSLCEKWTCYYKKKEKNDGKKAINFCVLQDDKVGKSQEKSMHYNSFFWDWVYHMLHDSLDWRKQLGRCINKKEETKCIGSCNKKCECFAKWVGHKQQEWEQIKKHFLKQDDIGQETNCDPMVTLEILLDIDELLKNIKDTHANADDIDRIQNMLQQAGFDGGVAALVGRCTEGFVAEKDTTIDKFLEKELQEAEKCLETHKEKC
notes: CIDRα2.9 domain of the PfEMP1 IT4var45, Plasmodium falciparum; also called CIDRα2.9 IT4var45; IT4var45 (α2.9)
B3: IT4var61 CIDRα2.7 domain (domain or fragment)
chain: PWCGVKRNGGGWKAKSDGECAKEKKTYKKKNITEIPVLTPDKEKHNILQKYENFCKNSDGNNGDQIKNWQCYYEEKDESDNDGDSNICVLQNENIGKKEEKSMPYHPFFWKWVTEMLIDSMYWRKELKRCINKETKACKNGCKNNCDCYKRWVEEKKKEWGQIKTHFNTQEDMREDIGENTDPGIILAALLNIEDLFENIKDTYGDVKEIKDINQMLEKENEENEGTAGADSKKKNTIDLMINHEQKDAQKCVTNNPDKDC
notes: CIDRα2.7 domain of the PfEMP1 IT4var61, Plasmodium falciparum; also called CIDRα2.7 IT4var61; IT4var61 (α2.7)
B4: HB3var13 CIDRα3.2 domain (domain or fragment)
chain: PLCGVKKEKGTWVRKDSMNDCPRIKLYKPINDKVGTPINFLYSGDGQTEIAEKLKKFCRTENGSDGSSSARANGASGDKNGGSGSQELYQYWKCYQIGDLQKVREGEDDEDDGQYDQEVENAGGLCILQKTNGKENVNKQKTSHEIQKTFNPFFYYWVVHMLKDSIHWRTEKIKSCINNTNELKACKNNKKCNSDCDCFKRWVKQKGKEWGQIKVHFKTQDIRGKVVNGNTVVSFFLDHDELLEGVLDKGLLLESLQEAYGNAEDIKHIKKLLQETDVVGGGEHKTTIDFLLKEELNEAEECLKKQKDNEC
notes: CIDRα3.2 domain of the PfEMP1 HB3var13, Plasmodium falciparum; also called CIDRα3.2 HB3var13; HB3var13 (α3.2)
B5: IT4var14 CIDRα5 domain (domain or fragment)
chain: PWCGIEEQKDGKWKRINDHSACKEEELYTPKENAKYTKINVLTSGEGHEDIAKRLKEFCTKTQNGGGGSDDCGGNSDSSLCEPWQCYQPDQLEKVGGGEVDDKLKGAGGLCIFEKMKGEKKVKKQKTFNNFFNFWVAHVLKDSIDWRTQLTKCLSEDKLKKCEKGCKSNCECFKKWIEKKEKEWIKVKDQFNKQTDFLEWKHYLVLETILENYYFENIQKAYGDLKSIQEMKKMIKENKQNKNRTKDDEDALDVLFDHEKEEAEDCLDIHE
notes: CIDRα5 domain of the PfEMP1 IT4var14, Plasmodium falciparum; also called CIDRα5 IT4var14; IT4var14 (α5)
B6: IT4var15 CIDRα3.5 domain (domain or fragment)
chain: PGCGVELIGNEWKEKNKGECKGGKRYNIPKGTKHNVIPVLSFGDEHKEIIEKIEQFCAESNSDSSKLTEQWKCYYGDKEYEVCTLENRNKSEEDPEEIQKTFHNFFYFWIRHLLNDSIEWRDKINNCIEKAKEGKCKNECKTDCGCFQRWIGKKKEEWGEIKKHFKTQDGFSIFGNNYDFVLENVLNIDELFQDITEAYGNSQKIQGIKDTLAKKKTQAADDATEQKNTIDLLFEYDSEEAEKCKKIQEEC
notes: CIDRα3.5 domain of the PfEMP1 IT4var15, Plasmodium falciparum; also called CIDRα3.5 IT4var15; IT4var15 (α3.5)
B7: MAL6P1.252 CIDRα2.1 domain (domain or fragment)
chain: PWCGVKPGGPPWKDNDIDSCGKKEISFSDKDTTDISILSTDRAKKNILQKLENFCRDTEHINHDIWKCHYENTDNDNCILQNENTGSEKQKIMPFDAFFFLWLTQMLDDSIEWRKKLKTCINNEKPTNCIRGCKKPCECFERWVEQKEEEWISIEKHFDKQRDISEEERYITLEYILNEFFMDKIEKAYGIEKSKELKEKLKSNKGHGIIRDTEHSQDAIKILLEHELEDAKKCTETHNDEKC
notes: CIDRα2.1 domain of the PfEMP1 MAL6P1.252, Plasmodium falciparum; also called CIDRα2.1 MAL6P1.252
B8: IT4var12 CIDRα6 domain (domain or fragment)
chain: PWCGLKKQADGTWKRLYENDPQCPIKPKYEPPKGEEPTEIDVLYTGKENKDIIVKLREFCKTDGNTGFKNEEWNCYYQVGNDKCVLENGEELGGEKKVKDYDNFLMFWVAHMLKDSIEWRSKLSNCLKSDKKTCIKKCNDNCKCYEKWIGKKKVEWTQIKKHFDKQTDFQGWGRYFVLETVLEGDQFFTDITKAYGDAREIVHIQEMLQKKKEQVLHEDASNMKTIIDELLDHELKEAKQCIVNHKDNNC
notes: CIDRα6 domain of the PfEMP1 IT4var12, Plasmodium falciparum; also called CIDRα6 IT4var12; IT4var12 (α6)
B9: IT4var33 CIDRα2.4 domain (domain or fragment)
chain: PLCGLGMQEPPWNPKKDTDCEDRGIKTFDDRNSTPINLLVKDVTGTSIVEKLGGLCGNGAKKNIQTWKCRFESSQNYYCVLQNDKKNTPQQEIESFNSLFWHWITEMLKDSIDWRKEHENCINNNNTCKKGCKSKCECFEKWVKRMKEEWKQVLEVYDKQPDFKEVFTPYFTLGYLLKEYFTKIKAPYEEVESVQEFIKEMEQIIDENSNNINATKENNSITKFLQHEEGIATECKKTHNEEKC
notes: CIDRα2.4 domain of the PfEMP1 IT4var33, Plasmodium falciparum; also called CIDRα2.4 IT4var33; IT4var33 (α2.4)
B10: IT4var30 CIDRα2.10 domain (domain or fragment)
chain: PWCGIEEQKVDGKWKAKNNGECAKVENKIYDPKKTTTIEILTGDNEKFGIYEKYNKFCANGKNGVTSGAPDTAPGKNGNQIVTWQCYYDKKKRSGQNNDNCVEGTWEKFTGKQTVKSYNVFFWDWVYHMLHDSLEWRERLNSCINNAKSQNCKNNKCNRECGCFAKWVVKKKDEWDKIKDHFNKQENIGQNVGFIEFNHYGVLEGVLDKDELLKNIKDTHADAKDIERIDKMLQQAGVVGGGRGGENNTIIDKFLQEEERFAKDCQQKQEEC
notes: CIDRα2.10 domain of the PfEMP1 IT4var30, Plasmodium falciparum; also called CIDRα2.10 IT4var30; IT4var30 (α2.10)
B11: MCvar1 PfEMP1 CIDRα2.8 domain (residues 576-745, C626S) (domain or fragment)
chain: EDKIMSYNAFFWMWVHDMLIDSIKWRDEHGRCINKDKGKTCIKGCNKKCISFQKWVEQKKTEWGKIKDHFRKQKDIPKDWTHDDFLQTLLMKDLLLEIIQDTYGDANEIKRIEALLEQAGVGGIDFAALAGLYTKGFVAEKDTTIDKLLQHEQKEADKCLKTHTDDTCPP
notes: CIDRα2.8 domain of the MCvar1 PfEMP1, Plasmodium falciparum; the reverse cloning primer (D1:p11) ends at ...DTCPP; also called MCvar1 CIDRα2.8; MC179 CIDRα2.8; source: HEK293, secreted, purified (TALON, size-exclusion chromatography); for the crystal co-expressed with CD36 in the presence of kifunensine
B12: MCvar1 CIDRα2.8 domain (residues 576-745, C626S) Q648A (domain or fragment)
chain: EDKIMSYNAFFWMWVHDMLIDSIKWRDEHGRCINKDKGKTCIKGCNKKCISFQKWVEQKKTEWGKIKDHFRKAKDIPKDWTHDDFLQTLLMKDLLLEIIQDTYGDANEIKRIEALLEQAGVGGIDFAALAGLYTKGFVAEKDTTIDKLLQHEQKEADKCLKTHTDDTCPP
notes: CIDRα2.8 domain of the MCvar1 PfEMP1, Plasmodium falciparum; source: HEK293, secreted, purified (TALON, size-exclusion chromatography)
B13: MCvar1 CIDRα2.8 domain (residues 576-745, C626S) D680N:N682T (domain or fragment)
chain: EDKIMSYNAFFWMWVHDMLIDSIKWRDEHGRCINKDKGKTCIKGCNKKCISFQKWVEQKKTEWGKIKDHFRKQKDIPKDWTHDDFLQTLLMKDLLLEIIQDTYGNATEIKRIEALLEQAGVGGIDFAALAGLYTKGFVAEKDTTIDKLLQHEQKEADKCLKTHTDDTCPP
modifications: N-linked glycan at the introduced site on the majority of the protein
notes: CIDRα2.8 domain of the MCvar1 PfEMP1, Plasmodium falciparum; Introduces an N-linked glycosylation site into site 2 of the crystal; also called site 2 mutant; site 2; source: HEK293, secreted, purified (TALON, size-exclusion chromatography)
B14: MCvar1 CIDRα2.8 domain (residues 576-745, C626S) F660N:Q662T (domain or fragment)
chain: EDKIMSYNAFFWMWVHDMLIDSIKWRDEHGRCINKDKGKTCIKGCNKKCISFQKWVEQKKTEWGKIKDHFRKQKDIPKDWTHDDNLTTLLMKDLLLEIIQDTYGDANEIKRIEALLEQAGVGGIDFAALAGLYTKGFVAEKDTTIDKLLQHEQKEADKCLKTHTDDTCPP
modifications: N-linked glycan at the introduced site on a small fraction of the protein
notes: CIDRα2.8 domain of the MCvar1 PfEMP1, Plasmodium falciparum; Introduces an N-linked glycosylation site into site 1 of the crystal; also called site 1 mutant; site 1; source: HEK293, secreted, purified (TALON, size-exclusion chromatography)
B15: MCvar1 CIDRα2.8 domain (residues 576-745, C626S) E672A (domain or fragment)
chain: EDKIMSYNAFFWMWVHDMLIDSIKWRDEHGRCINKDKGKTCIKGCNKKCISFQKWVEQKKTEWGKIKDHFRKQKDIPKDWTHDDFLQTLLMKDLLLAIIQDTYGDANEIKRIEALLEQAGVGGIDFAALAGLYTKGFVAEKDTTIDKLLQHEQKEADKCLKTHTDDTCPP
notes: as for B12
B16: MCvar1 PfEMP1 CIDRα2.8 domain (residues 576-745, C626S) (domain or fragment)
chain: EDKIMSYNAFFWMWVHDMLIDSIKWRDEHGRCINKDKGKTCIKGCNKKCISFQKWVEQKKTEWGKIKDHFRKQKDIPKDWTHDDFLQTLLMKDLLLEIIQDTYGDANEIKRIEALLEQAGVGGIDFAALAGLYTKGFVAEKDTTIDKLLQHEQKEADKCLKTHTDDTCPP
notes: PfEMP1 MCvar1, Plasmodium falciparum, CIDRα2.8 domain, residues 576-745; Synthetic codon-optimised cDNA (GeneArt) cloned into pHLsec-8H; also called MCvar1 CIDRα2.8; source: HEK293 cells, secreted, purified (TALON, size-exclusion chromatography); coexpressed with CD36 with kifunensine for the structure and SEC-MALS, expressed individually for SPR

Consider 16 molecules from publication PMC5052687, “The structural basis for CD36 binding by the malaria parasite” (Nature Communications, 2016).

T1 sequence (P16671 35-439): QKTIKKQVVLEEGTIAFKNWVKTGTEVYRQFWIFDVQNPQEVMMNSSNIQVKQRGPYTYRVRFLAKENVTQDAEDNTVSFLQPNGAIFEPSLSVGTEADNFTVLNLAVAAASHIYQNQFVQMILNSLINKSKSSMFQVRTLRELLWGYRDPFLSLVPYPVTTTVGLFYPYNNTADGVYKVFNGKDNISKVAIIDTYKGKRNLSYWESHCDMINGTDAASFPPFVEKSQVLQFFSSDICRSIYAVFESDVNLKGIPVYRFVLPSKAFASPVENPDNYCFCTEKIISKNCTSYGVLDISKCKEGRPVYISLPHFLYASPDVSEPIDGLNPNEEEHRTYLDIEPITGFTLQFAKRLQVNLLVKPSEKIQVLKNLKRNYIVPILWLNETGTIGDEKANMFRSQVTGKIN

The first test has as its target T1, human CD36 ectodomain (residues 35-439), C-terminal 8xHis and biotinylated BAP tag (human, UniProt P16671 35-439, biotin on the BAP tag (in vitro, BirA ligase)).
T1 construct: CD36, human, ectodomain residues 35-439; Construct for SPR; vector pHLsec-8H; also called CD36 wild-type; w.t; source: HEK293T, purified (TALON, size-exclusion chromatography), biotinylated in vitro with BirA; not shown: BAP tag, C-terminal, kept
Nature of the test: SPR; biotinylated CD36 (wild type or F153A) immobilised on a CAPture chip to ~700 RU; CIDRα domains as analytes, two-fold dilutions from 400 nM (Supplementary Figure 10: 400 nM only), 240 s injection, 300 s dissociation; 25 °C, 20 mM HEPES pH 7.5, 0.15 M NaCl, 0.005% Tween20; affinities from equilibrium binding, one site-binding model. The settings on record: both partners purified.
In turn, B1 showed a Kd of 15.8 nM.

For B2, binding was put at a Kd of 23 nM.

Molecule B3 displayed a Kd of 72 nM.

Consider B4, for which the Kd is 12.3 nM.

For the molecule B5, binding was put at a Kd of 180 nM.

With B6, the Kd came out at 3 nM.

Turning to B7, the Kd was 3.6 nM.

For B8, the Kd stood at 6.6 nM.

As to B9, the affinity, expressed as Kd, was 3.3 nM.

In the case of B10, binding was put at a Kd of 55 nM.

Another test concerns the target T1, human CD36 ectodomain (residues …). The test is described as above. The settings on record: both partners purified. The source holds these as a separate data set.
Turning to B11, binding was characterised by a dissociation constant (Kd) of 12 nM.

Regarding B12, the Kd is 362 nM.

With B13, the Kd was determined as 18 nM.

In turn, B14 registered a Kd of 306 nM.

The molecule B15 yielded a Kd of 86 nM.

The target of another test is T2, human CD36 ectodomain (residues 35-439) (human, UniProt P16671 35-439).
T2 construct: CD36, human, ectodomain residues 35-439; Cloned into pHLsec-8H (secretion vector); For crystallisation the complex was deglycosylated (endoglycosidase F1) and treated with carboxypeptidase Y in situ
T2 sequence (P16671 35-439): as above
Put plainly: SEC-MALS; coexpressed and purified CD36:MCvar1 CIDRα2.8 complex at 1 mg/ml, Superdex S200 10/300 GL, 10 mM HEPES pH 7.5, 0.15 M NaCl. The settings on record: both partners purified.
With B16, the “stoichiometry N” value was found to be 1.
